For two molecules, Ki and Kd results are on record in publication PMC3433420, “Comprehensive Binary Interaction Mapping of SH2 Domains via Fluorescence Polarization Reveals Novel Functional Diversification of ErbB Receptors” (PLoS ONE, 2012).

One assay concerns the target T1, SRC SH2 domain (human, UniProt P12931-1 151-248).
T1 construct: SRC, human; also called c-Src; source: bacterial expression, purified
Put plainly: fluorescence polarisation; competition: rhodamine peptide 10 nM, protein at four times its KD, unlabeled competitor peptide in 11 serial 1:3 dilutions; Ki from IC50, one-site model. Particulars: both partners purified. On the technique in general: Fluorescence polarisation rises when a labelled molecule tumbles more slowly, as on binding a larger partner.

The target in another assay is T2, GRB2 SH2 domain (human, UniProt P62993 60-152).
T2 construct: GRB2, human; source: bacterial expression, purified
T2 sequence (P62993 60-152): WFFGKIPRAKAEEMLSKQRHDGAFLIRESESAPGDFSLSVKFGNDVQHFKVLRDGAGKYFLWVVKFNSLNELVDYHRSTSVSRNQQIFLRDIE
Put plainly: fluorescence polarisation; saturation binding in solution: rhodamine peptide fixed at 10 nM, protein titrated 0.002-10 uM, 20 min at room temperature; assay buffer 20 mM HEPES, 100 mM KCl, 0.1% Tween-20, 5 mM DTT, pH 7.8; apparent KD. The conditions noted are these: both partners purified.

Non-standard residues stand in square brackets, D forms with d. No end group written: not given here. pY = N[C@@H](Cc1ccc(OP(=O)(O)O)cc1)C(=O)O; rhodamine = not defined here

B1: ErbB3pY1222 phosphopeptide, unlabeled competitor (peptide)
peptide: EELG[pY]EYMDVGSD
notes: human ErbB3 around Tyr1222; source: synthetic peptide
In the case of B1, in the assay with SRC SH2 domain, the Ki (commonly the dissociation constant of the complex between target and ligand, obtained from inhibition or displacement) was determined as 2360 nM.

B2: ErbB4pY1208 phosphopeptide, rhodamine-labelled (peptide)
peptide: rhodamine-NEPL[pY]LNTFANTD
modifications: reading uncertain
notes: human ErbB4 around Tyr1208; the labelled form stood in the FP saturation assay behind Ki (exp FP); source: synthetic peptide
Regarding B2, in the assay with GRB2 SH2 domain, the Kd came to 1460 nM.
